Source: patent publication US12329841B2, “Odorant-binding protein compositions, methods and uses thereof” (Universidade do Minho, priority 2020, dated 2025)

Assays:
[1] = Competitive fluorescence assay with sweat solution added to 1-AMA/protein complex; type: binding; settings: 37° C.; for Ka in sweat (affinity/association constant): sweat solution (AATCC 15-2009, pH 4.0-8.5), 1 μM protein + 2 μM 1-AMA, mean of 2 independent experiments
Procedure: (§1) In an embodiment, the pure odorant-binding protein was lyophilized and used in further procedures. To determine the affinity of the odorant-binding protein to odour molecules, 1-aminoanthracene (1-AMA) was used as an odour model molecule. Increased concentrations of fluorescent ligand model 1-aminoanthracene (1-AMA) were added to 1 μM of protein, and the formation of ligand/protein complex was quantified after 1 h at 37° C. by fluorescence emission at 481 nm (excitation at 295 nm).^30 Dissociation constant (Kd) was determined from a plot of fluorescence intensity versus concentration of ligand, obtained with a standard non-linear regression method, described in Malpeli et al. (1998).^31 The affinity behaviour of protein in presence of sweat solution was performed through a competitive fluorescence assay. Here, 1 μM of protein was mixed with 2 μM of 1-AMA and incubated at 37° C. for 1 h. After this period, increased volumes of sweat solution were added to the complex and incubated at same conditions.
In an embodiment, the sweat solution was prepared as indicated in AATCC method 15-2009 “Colorfastness to Perspiration”. The pH of the prepared solution varied between 4.0 and 8.5. In accordance with its composition, the sweat solution is also regarded as electrolyte solution.
(§2) In a further embodiment, fluorescence emission at 481 nm (excitation at 295 nm) was recorded and the dissociation constant (Kd) calculated. The association constant (Ka) was calculated by formula Kd=1/Ka.

[2] = particularly in the presence of a ligand; cited from earlier work
[3] = 1-AMA fluorescence binding assay in buffer; settings: 50 mM Tris-HCl pH 7.5 buffer, 37° C., 1 μM protein, 1-AMA ligand, Ka from Kd=1/Ka, mean of 2 independent experiments
Procedure: as §1, §2

[4] = Fragrance release quantified by headspace GC-MS after adding sweat solution; settings: for Odorific molecules released in response to human perspiration, compared with other fusion proteins based on porcine OBP: sweat pH 4.0-8.5
Procedure: In an embodiment, the release of fragrance was quantified by gas chromatography-mass spectrometry (GC-MS). Increased concentrations of fragrance were used in different vials and the fragrance in headspace quantified performing the calibration curve (area of peak vs fragrance concentration). The fragrance was incubated with the odorant-binding protein at 37° C. Sweat solution was added and the fragrance release determined after several periods of time (0.5-24 h) of perspiration exposition.

[5] = cited from earlier work
[6] = listed as Native porcine OBP (OBP-I)

Molecule	Reduction of affinity on addition of sweat solution (Ka buffer vs Ka sweat) [1]	Ka in sweat (affinity/association constant) [1]	Ka in sweat (affinity/association constant) ([1]; listed as Native OBP-I)	Ka in sweat (affinity/association constant) [1, 6]	Structure stable to thermal denaturation up to (FT-IR) [2]	Ka in buffer (affinity/association constant) [3]	Ka in buffer (affinity/association constant) ([3]; listed as Native OBP-I)	Ka in buffer (affinity/association constant) [3, 6]	Odorific molecules released in response to human perspiration, compared with other fusion proteins based on porcine OBP [4]	More fragrance release in presence of sweat versus presence of buffer ([4]; sweat versus buffer)	Release of fragrance in presence of sweat, value reported in state of art (ref. 25) [5]
OBP-I: Native porcine (pig) odorant-binding protein, PDB ID 1DZK, SEQ ID NO. 1 (protein, listed as Sus scrofa, Pig OBP (PDB ID 1DZK)) QEPQPEQDPFELSGKWITSYIGSSDLEKIGENAPFQVFMRSIEFDDKESKVYLNFFSKENGICEEFSLIGTKQEGNTYDVNYAGNNKFVVSYASETALIISNINVDEEGDKTIMTGLLGKGTDIEDQDLEKFKEVTRENGIPEENIVNIIERDDCPA	20 ×	0.2 µM⁻¹	0.2 ± 0.02 µM⁻¹	0.2 ± 0.02 µM⁻¹	up to 80 °C	4 ± 0.03 µM⁻¹	4 ± 0.03 µM⁻¹	4 ± 0.03 µM⁻¹	more than 20 ×	–	–
OBP::GQ20::KP: Recombinant pig OBP fused with linker GQ 20× and KP peptide, SEQ ID NO. 21 (protein, OBP::GQ20::KP (recombinant protein)) QEPQPEQDPFELSGKWITSYIGSSDLEKIGENAPFQVFMRSIEFDDKESKVYLNFFSKENGICEEFSLIGTKQEGNTYDVNYAGNNKFVVSYASETALIISNINVDEEGDKTIMTGLLGKGTDIEDQDLEKFKEVTRENGIPEENIVNIIERDDCPAGQGQGQGQGQGQGQGQGQGQGQGQGQGQGQGQGQGQGQGQGGVCGPSPPCITT	6.8 ×	0.59 µM⁻¹	–	–	–	4 µM⁻¹	–	–	> 6.8 ×	6.8 ×	–
OBP::GQ20::CBM: Recombinant pig OBP fused with spacer GQ20 and carbohydrate-binding module; comparative data, SEQ ID NO. 22 (protein, OBP::GQ20::CBM (recombinant protein)) QEPQPEQDPFELSGKWITSYIGSSDLEKIGENAPFQVFMRSIEFDDKESKVYLNFFSKENGICEEFSLIGTKQEGNTYDVNYAGNNKFVVSYASETALIISNINVDEEGDKTIMTGLLGKGTDIEDQDLEKFKEVTRENGIPEENIVNIIERDDCPAGQGQGQGQGQGQGQGQGQGQGQGQGQGQGQGQGQGQGQGQASPIGEGTFDDGPEGWVAYGTDGPLDTSTGALCVAVPAGSAQYGVGVVLNGVAIEEGTTYTLRYTATASTDVTVRALVGQNGAPYGTVLDTSPALTSEPRQVTETFTASATYPATPAADDPEGQIAFQLGGFSADAWTLCLDDVALDSEVEL	1.3 ×	3.16 µM⁻¹	–	–	–	4.17 µM⁻¹	–	–	–	–	1.3 ×
